Publication PMC1769423, “Different Quaternary Structures of Human RECQ1 Are Associated with Its Dual Enzymatic Activity” (PLoS Biology, 2007)
Where a chain is given by its changes, count along the chain named. Names and notes keep the numbering of the source.

B1: RECQ1(K119R) (human RECQ1, ATPase-deficient Walker A mutant) (enzyme, UniProt P46063 1-649, looked up)
chain: MASVSALTEELDSITSELHAVEIQIQELTERQQELIQKKKVLTKKIKQCLEDSDAGASNEYDSSPAAWNKEDFPWSGKVKDILQNVFKLEKFRPLQLETINVTMAGKEVFLVMPTGGGRSLCYQLPALCSDGFTLVICPLISLMEDQLMVLKQLGISATMLNASSSKEHVKWVHAEMVNKNSELKLIYVTPEKIAKSKMFMSRLEKAYEARRFTRIAVDEVHCCSQWGHDFRPDYKALGILKRQFPNASLIGLTATATNHVLTDAQKILCIEKCFTFTASFNRPNLYYEVRQKPSNTEDFIEDIVKLINGRYKGQSGIIYCFSQKDSEQVTVSLQNLGIHAGAYHANLEPEDKTTVHRKWSANEIQVVVATVAFGMGIDKPDVRFVIHHSMSKSMENYYQESGRAGRDDMKADCILYYGFGDIFRISSMVVMENVGQQKLYEMVSYCQNISKCRRVLMAQHFDEVWNSEACNKMCDNCCKDSAFERKNITEYCRDLIKILKQAEELNEKLTPLKLIDSWMGKGAAKLRVAGVVAPTLPREDLEKIIAHFLIQQYLKEDYSFTAYATISYLKIGPKANLLNNEAHAITMQVTKSTQNSFRAESSQTCHSEQGDKKMEEKNSGNFQKKAANMLQQSGSKNTGAKKRKIDDA
notes: human RECQ1 helicase (alias RECQL), the 649-amino acid variant, with K119R in ATPase motif I (Walker A box); also called RECQ1 K119R mutant; His6-K119R RECQ1 mutant; source: baculovirus/Sf9 cells, purified; not shown: His6, N-terminal, kept
B2: untagged RECQ1 (utRECQ1; human RECQ1 helicase after removal of the N-terminal His6-tag) (enzyme, UniProt P46063 1-649, looked up)
chain: B1 chain with R119K
notes: human RECQ1 helicase (alias RECQL), the 649-amino acid variant; also called untagged wild-type RECQ1; source: baculovirus/Sf9 cells, purified; not shown: His6, N-terminal, cleaved

Assays:
[1] = biological target: the molecule itself; test: negative-stain transmission electron microscopy; as a2 but with 2-5 mM ATP or ATPγS, with or without oligo(dT)30
[2] = biological target: the molecule itself; test: SEC; Superdex200 HR 10/30, 20 mM Tris pH 7.5, 150 mM KCl, 1 mM DTT; about 40 ug RECQ1 loaded at 1 uM; alone, with oligo(dT)40 or oligo(dT)30 and/or 1 mM ATP or ATPγS in the elution buffer; also 100-500 mM salt and 0.1-35 uM protein

Protein	binding result [1]	binding result [2]
B1	binds	–
B2	–	binds
